According to doi:10.1101/449629:

What was measured:
[1] = biological target: Recombinant hamster MIF (Syrian golden hamster macrophage migration inhibitory factor) (Syrian golden hamster (Mesocricetus auratus)); assay: SEC
[2] = biological target: Recombinant hamster MIF (Syrian golden hamster macrophage migration inhibitory factor) (Syrian golden hamster (Mesocricetus auratus)); assay: crystal structure

Recombinant hamster MIF (Syrian golden hamster macrophage migration inhibitory factor) (from UniProt A0A140EDM8 1-115) (natural protein)
stoichiometry N [1]: 3 | stoichiometry N [2]: 3
